Experimental data reported in US20240116985A1, “STAPLED PEPTIDES AND METHODS THEREOF” (priority 2020, published 2024).
Starred links: 1 amine or outer side, 2 acyl side, 3 side chain; linkers in the order of their positions; H or OH if unused. Positions of bridges follow the written chain, without caps; N, C: chain ends. Non-standard residues stand in square brackets, D forms with d. Primed or numbered codes have the meaning given here. No end group written: not given here. *: point of attachment. PyrS2″ = (S)-3-amino-1-((pent-4-en-1-yloxy)carbonyl)pyrrolidine-3-carboxylic acid (stapling residue), C=CCCCOC(=O)N1CC[C@@](N[*:1])(C(=O)[*:2])C1; B5(16) = 2-amino-2-(pent-4-en-1-yl)hept-6-enoic acid = 2,2-bis(4-pentenyl)glycine (stitching residue), C=CCCCC(CCCC=C)(N[*:1])C(=O)[*:2]; B5(4) = 2,2-bis(4-pentenyl)glycine = 2-amino-2-(pent-4-en-1-yl)hept-6-enoic acid (stitching residue), C=CCCCC(CCCC=C)(N[*:1])C(=O)[*:2]; B5(5) = 2,2-bis(4-pentenyl)glycine, 2-amino-2-(pent-4-en-1-yl)hept-6-enoic acid (stitching residue), C=CCCCC(CCCC=C)(N[*:1])C(=O)[*:2]; PyrS2 = (S)-3-amino-1-((pent-4-en-1-yloxy)carbonyl)pyrrolidine-3-carboxylic acid, C=CCCCOC(=O)N1CC[C@@](N[*:1])(C(=O)[*:2])C1; SPip1 = 4-amino-1-((but-3-en-1-yloxy)carbonyl)piperidine-4-carboxylic acid, C=CCCOC(=O)N1CCC(N[*:1])(C(=O)[*:2])CC1; B5(12) = 2-amino-2-(pent-4-en-1-yl)hept-6-enoic acid (two olefin side chains), C=CCCCC(CCCC=C)(N[*:1])C(=O)[*:2]; B5(3) = 2,2-bis(4-pentenyl)glycine (stitching residue), C=CCCCC(CCCC=C)(N[*:1])C(=O)[*:2]; B5 = 2-amino-2-(pent-4-en-1-yl)hept-6-enoic acid, C=CCCCC(CCCC=C)(N[*:1])C(=O)[*:2]; NdiMeButC = N-terminal 4-(dimethylamino)butanoyl, CN(C)CCCC(=O)*; 5hexenyl″ = N-terminal hex-5-enoic acid cap, C=CCCCC(=O)*; Phe(3-CF3) = N[C@@H](Cc1cccc(C(F)(F)F)c1)C(=O)O; Phe(4-CF3) = N[C@@H](Cc1ccc(C(F)(F)F)cc1)C(=O)O; Phe(3-COOH) = N[C@@H](Cc1cccc(C(=O)O)c1)C(=O)O; Phe(2-Cl) = N[C@@H](Cc1ccccc1Cl)C(=O)O; Phe(2-F) = N[C@@H](Cc1ccccc1F)C(=O)O; Bta = N[C@@H](Cc1csc2ccccc12)C(=O)O; αAllylPro = C=CC[C@@]1(C(=O)O)CCCN1; hPhe = N[C@@H](CCc1ccccc1)C(=O)O; tBuAla = CC(C)(C)C[C@H](N)C(=O)O; 3Thi = N[C@@H](Cc1ccsc1)C(=O)O; Cha = N[C@@H](CC1CCCCC1)C(=O)O; αMeP = C[C@@]1(C(=O)O)CCCN1; Octanoyl = CCCCCCCC(=O)*

Legend:
[1] = target: full-length beta-Catenin (Uniprot ID P35222) (Homo sapiens (Human)) (UniProt P35222); assay: fluorescence polarization competition; full-length beta-catenin, competitor 5FAM-TCF4(10-53) probe
Target sequence in this assay (P35222 whole entry, one chain of several): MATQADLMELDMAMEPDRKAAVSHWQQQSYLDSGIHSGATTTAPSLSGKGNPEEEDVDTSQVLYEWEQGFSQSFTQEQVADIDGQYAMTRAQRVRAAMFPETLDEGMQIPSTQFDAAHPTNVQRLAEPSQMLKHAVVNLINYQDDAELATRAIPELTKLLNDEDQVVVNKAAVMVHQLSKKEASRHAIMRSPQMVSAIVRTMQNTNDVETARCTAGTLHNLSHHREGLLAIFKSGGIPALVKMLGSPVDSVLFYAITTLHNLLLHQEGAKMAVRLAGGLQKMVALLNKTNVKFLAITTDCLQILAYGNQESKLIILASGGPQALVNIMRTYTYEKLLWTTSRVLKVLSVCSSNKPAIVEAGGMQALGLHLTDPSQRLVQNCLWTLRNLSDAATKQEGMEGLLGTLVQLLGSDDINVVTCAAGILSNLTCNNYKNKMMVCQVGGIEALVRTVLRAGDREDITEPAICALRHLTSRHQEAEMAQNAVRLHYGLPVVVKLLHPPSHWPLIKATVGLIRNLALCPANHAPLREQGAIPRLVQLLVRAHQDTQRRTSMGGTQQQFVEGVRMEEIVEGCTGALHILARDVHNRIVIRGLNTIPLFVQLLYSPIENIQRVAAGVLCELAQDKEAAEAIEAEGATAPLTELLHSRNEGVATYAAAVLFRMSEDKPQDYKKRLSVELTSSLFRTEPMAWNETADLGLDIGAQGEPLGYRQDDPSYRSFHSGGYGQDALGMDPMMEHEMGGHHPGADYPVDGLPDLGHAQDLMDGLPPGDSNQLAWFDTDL

[2] = target: full-length beta-Catenin (Uniprot ID P35222) (Homo sapiens (Human)) (UniProt P35222); assay: fluorescence polarization competition; full-length beta-catenin with 5FAM-TCF4(10-53) probe, peptide titrated
Target sequence in this assay (P35222 whole entry, one chain of several): as above

[3] = target: full-length beta-Catenin (Uniprot ID P35222) (Homo sapiens (Human)) (UniProt P35222); assay: fluorescence polarization competition; 10 nM full-length beta-catenin + 10 nM 5FAM-TCF4 10-53 as competitor probe
Target sequence in this assay (P35222 2-781 limits assumed): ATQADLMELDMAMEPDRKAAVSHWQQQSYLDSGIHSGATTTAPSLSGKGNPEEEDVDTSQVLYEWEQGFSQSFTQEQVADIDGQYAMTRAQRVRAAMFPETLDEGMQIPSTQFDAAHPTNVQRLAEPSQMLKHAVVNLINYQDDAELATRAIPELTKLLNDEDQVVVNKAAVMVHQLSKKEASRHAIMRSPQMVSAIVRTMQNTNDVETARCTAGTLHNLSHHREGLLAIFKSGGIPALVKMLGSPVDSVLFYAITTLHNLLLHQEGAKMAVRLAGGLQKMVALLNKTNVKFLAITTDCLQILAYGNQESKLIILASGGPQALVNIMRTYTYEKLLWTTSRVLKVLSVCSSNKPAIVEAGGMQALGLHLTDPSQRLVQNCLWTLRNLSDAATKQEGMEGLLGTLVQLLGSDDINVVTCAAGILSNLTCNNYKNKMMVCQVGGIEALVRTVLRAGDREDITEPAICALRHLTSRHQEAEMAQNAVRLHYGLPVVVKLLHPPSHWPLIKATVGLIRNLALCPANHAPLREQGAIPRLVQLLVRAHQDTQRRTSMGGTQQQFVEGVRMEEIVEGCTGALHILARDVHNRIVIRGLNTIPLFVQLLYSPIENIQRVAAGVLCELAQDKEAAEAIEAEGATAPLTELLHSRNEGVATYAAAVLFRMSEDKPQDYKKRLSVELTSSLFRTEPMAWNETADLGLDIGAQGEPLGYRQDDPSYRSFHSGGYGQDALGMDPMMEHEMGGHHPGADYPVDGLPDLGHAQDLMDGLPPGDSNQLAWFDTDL

[4] = target: full-length beta-Catenin (Uniprot ID P35222) (Homo sapiens (Human)) (UniProt P35222); assay: fluorescence polarization competition; full-length beta-catenin, competitor 5FAM-TCF4 10-53
Target sequence in this assay (P35222 whole entry, one chain of several): as the sequence (P35222 whole entry, one chain of several) above

[5] = target: Bcat-Halo (UniProt P35222); assay: NanoBRET absolute IC50 in HEK293 cells; Bcat-Halo, competitor TCF4-Luc
[6] = target: full-length beta-Catenin (Uniprot ID P35222) (Homo sapiens (Human)) (UniProt P35222); assay: FP competition; full-length beta-catenin, competitor 5FAM-TCF4(10-53)
Target sequence in this assay (P35222 whole entry, one chain of several): as above

[7] = target: full-length beta-Catenin (Uniprot ID P35222) (Homo sapiens (Human)) (UniProt P35222); assay: fluorescence polarization competition; full-length beta-catenin with 5FAM-TCF4(10-53) probe as competitor
Target sequence in this assay (P35222 2-781 limits assumed): as the sequence (P35222 2-781 limits assumed) above

[8] = target: full-length beta-Catenin (Uniprot ID P35222) (Homo sapiens (Human)) (UniProt P35222); assay: fluorescence polarization competition; displaces 5FAM-TCF4(10-53) from full-length beta-catenin
Target sequence in this assay (P35222 2-781 limits assumed): as above

[9] = target: beta-catenin (Homo sapiens (Human)) (UniProt P35222); assay: fluorescence polarization competition; full-length beta-catenin with 5FAM-TCF4(10-53) probe as competitor
[10] = target: Bcat-Halo (UniProt P35222); assay: NanoBRET Abs IC50, Bcat-Halo/TCF4-Luc in HEK293 cells
[11] = target: full-length beta-Catenin (Uniprot ID P35222) (Homo sapiens (Human)) (UniProt P35222); assay: fluorescence polarization competition; full-length beta-catenin, 5FAM-TCF4 10-53 probe as competitor
Target sequence in this assay (P35222 whole entry, one chain of several): as the sequence (P35222 whole entry, one chain of several) above

[12] = target: full-length beta-Catenin (Uniprot ID P35222) (Homo sapiens (Human)) (UniProt P35222); assay: fluorescence polarization competition against 5FAM TCF4 10-53 probe
Target sequence in this assay (P35222 whole entry, one chain of several): as above

[13] = target: full-length beta-Catenin (Uniprot ID P35222) (Homo sapiens (Human)) (UniProt P35222); assay: fluorescence polarization competition; full-length beta-catenin, competitor 5FAM-TCF4 10-53 probe
Target sequence in this assay (P35222 2-781 limits assumed): as the sequence (P35222 2-781 limits assumed) above

Sequence of Bcat-Halo (P35222 whole entry): as the sequence (P35222 whole entry, one chain of several) above
Sequence of beta-catenin (Homo sapiens (Human)) (P35222 whole entry): as the sequence (P35222 whole entry, one chain of several) above

B1: I-1067 (peptide)
peptide: Ac-[αAllylPro]D[tBuAla][B5(3)]DEAAFL[PyrS2″][Phe(2-Cl)][Bta]S-NH2
modifications: staple 1-4, 4-11; not fully specified; printed as Ac-PL3-Asp-Npg-B5-Asp-Glu-Ala-Ala-Phe-Leu-PyrS2-2C1F-BztA-Ser-NH2
EC50 [1]: 517 nM | IC50 [2]: 517 nM

Ac-[αAllylPro]D[tBuAla][B5(3)]DDAAFL[PyrS2″][Phe(2-Cl)][Bta]T-NH2 (staple 1-4, 4-11; also: staple stereoisomer: later eluting HPLC peak) [I-1069]
EC50 [1]: 920 nM | IC50 [2]: 920 nM

Ac-[αAllylPro]D[tBuAla][B5(5)]DEAAFS[PyrS2″][Phe(2-Cl)][Bta][dT]-NH2 (staple 1-4, 4-11) [I-1036]
EC50 [3]: 29 nM | IC50 [4]: 29 nM | IC50 [5]: 16600 nM

Ac-[αAllylPro]D[tBuAla][B5(3)]DEAAFL[PyrS2][Phe(2-Cl)][Bta]Q-NH2 (staple 1-4, 4-11) [I-1063]
EC50 [1]: 471 nM | IC50 [2]: 471 nM

Ac-[αAllylPro]D[tBuAla][B5(5)]DEAAFT[PyrS2″][Phe(2-Cl)][Bta][dT]-NH2 (staple 1-4, 4-11) [I-1037]
EC50 [3]: 30 nM | IC50 [4]: 30 nM | IC50 [5]: 4400 nM

Ac-[αAllylPro]D[Cha][B5(16)]DDAAFT[PyrS2″][Phe(2-Cl)][Bta]Q-NH2 (staple 1-4, 4-11) [I-1042]
EC50 [3]: 5 nM | IC50 [2]: 5 nM

Ac-[αAllylPro]D[tBuAla][B5(4)]DDAAF[Phe(3-CF3)][PyrS2][3Thi][Bta]Q-NH2 (staple 1-4, 4-11) [I-1364]
EC50 [6]: 9 nM | IC50 [7]: 9 nM

[αAllylPro]D[tBuAla][B5(4)]DDAAFF[PyrS2″][hPhe][Bta]Q-NH2 (staple 1-4, 4-11) [I-1351]
EC50 [6]: 258 nM | IC50 [7]: 258 nM

Ac-[αAllylPro]D[tBuAla][B5(5)]DNAAFT[PyrS2″][Phe(2-F)][Bta]Q-NH2 (staple 1-4, 4-11) [I-1022]
IC50 [4]: 33 nM | EC50 [8]: 33 nM | IC50 [5]: 13700 nM

Ac-[αAllylPro]D[tBuAla][B5(5)]DEAAFL[PyrS2″][3Thi][Bta]Q-NH2 (staple 1-4, 4-11) [I-1437]
IC50 [1]: 7 nM | EC50 [9]: 7 nM | IC50 [5]: 7100 nM

Ac-[αAllylPro]D[tBuAla][B5(5)]DDAAFT[PyrS2″][Phe(2-F)][Bta]Q-NH2 (staple 1-4, 4-11) [I-1021]
IC50 [10]: 11500 nM | IC50 [4]: 5 nM | EC50 [8]: 5 nM | IC50 [5]: 11500 nM

B2: I-1068 (peptide)
peptide: Ac-[αAllylPro]D[tBuAla][B5(3)]DDAAFL[PyrS2″][Phe(2-Cl)][Bta]T-NH2
modifications: staple 1-4, 4-11; not fully specified; printed as Ac-PL3-Asp-Npg-B5-Asp-Asp-Ala-Ala-Phe-Leu-PyrS2-2C1F-BztA-Thr-NH2
EC50 [1]: 950 nM | IC50 [2]: 950 nM

Ac-[αAllylPro]D[tBuAla][B5(5)]DDAAFT[PyrS2″][Phe(2-Cl)][Bta][dT]-NH2 (staple 1-4, 4-11) [I-1033]
EC50 [3]: 10 nM | IC50 [4]: 10 nM | IC50 [5]: 8600 nM

B3: I-2591 (peptide)
peptide: Ac-[αAllylPro]D[tBuAla][B5]D[Phe(3-COOH)]QAFL[SPip1][3Thi][Bta]A-NH2
modifications: staple 1-4, 4-11; not fully specified; printed as Ac-PL3-Asp-Npg-B5-Asp-3COOHF-Gln-Ala-Phe-Leu-SPip1-3Thi-BztA-Ala-NH2
IC50 [11]: 602 nM

Ac-[αAllylPro]D[tBuAla][B5(4)]DSAAFL[PyrS2″][3Thi][Bta]Q-NH2 (staple 1-4, 4-11) [I-1443]
IC50 [1]: 24 nM | EC50 [9]: 24 nM | IC50 [5]: 9500 nM

Ac-[αAllylPro]D[tBuAla][B5(5)]DDAAFS[PyrS2″][Phe(2-Cl)][Bta][dT]-NH2 (staple 1-4, 4-11) [I-1032]
EC50 [3]: 15 nM | IC50 [4]: 15 nM | IC50 [5]: 10400 nM

NdiMeButC-[αAllylPro]D[tBuAla][B5(4)]DDAAFS[PyrS2″]F[Bta]S-NH2 (staple 1-4, 4-11) [I-1354]
EC50 [6]: 48 nM | IC50 [7]: 48 nM

B4: I-2598 (peptide)
peptide: {5hexenyl″}-[αMeP]D[B5(3)]ADDAAF[PyrS2]L[3Thi][Bta]Q-NH2
modifications: staple 3-10; staple (positions not given here); not fully specified (bridges); printed as 5hexenyl-MePro-Asp-B5-Ala-Asp-Asp-Ala-Ala-Phe-PyrS2-Leu-3Thi-BztA-Gln-NH2
IC50 [12]: 1350 nM

B5: I-1066 (peptide)
peptide: Ac-[αAllylPro]D[tBuAla][B5(3)]DEAAFL[PyrS2″][Phe(2-Cl)][Bta]S-NH2
modifications: staple 1-4, 4-11; not fully specified; printed as Ac-PL3-Asp-Npg-B5-Asp-Glu-Ala-Ala-Phe-Leu-PyrS2-2C1F-BztA-Ser-NH2
EC50 [1]: 789 nM | IC50 [2]: 789 nM

B6: I-1065 (peptide)
peptide: Ac-[αAllylPro]D[tBuAla][B5(3)]DDAAFL[PyrS2″][Phe(2-Cl)][Bta]S-NH2
modifications: staple 1-4, 4-11; not fully specified; printed as Ac-PL3-Asp-Npg-B5-Asp-Asp-Ala-Ala-Phe-Leu-PyrS2-2C1F-BztA-Ser-NH2
EC50 [1]: 520 nM | IC50 [2]: 520 nM

Ac-[αAllylPro]D[tBuAla][B5(4)]DQAAFL[PyrS2″][3Thi][Bta]Q-NH2 (staple 1-4, 4-11) [I-1440]
IC50 [1]: 26 nM | EC50 [9]: 26 nM | IC50 [5]: 20700 nM

Ac-[αAllylPro]DN[B5(12)]DDAAFL[PyrS2″][3Thi][Bta]L-NH2 (staple 1-4, 4-11) [I-1413]
EC50 [9]: 74 nM | IC50 [13]: 74 nM

B7: I-1064 (peptide)
peptide: Ac-[αAllylPro]D[tBuAla][B5(3)]DDAAFL[PyrS2][Phe(2-Cl)][Bta]S-NH2
modifications: staple 1-4, 4-11; not fully specified; printed as Ac-PL3-Asp-Npg-B5-Asp-Asp-Ala-Ala-Phe-Leu-PyrS2-2C1F-BztA-Ser-NH2
EC50 [1]: 414 nM | IC50 [2]: 414 nM

Ac-[αAllylPro]D[tBuAla][B5(4)]DDAAF[Phe(4-CF3)][PyrS2][3Thi][Bta]Q-NH2 (staple 1-4, 4-11) [I-1365]
EC50 [6]: 9 nM | IC50 [7]: 9 nM

Octanoyl-[αAllylPro]D[tBuAla][B5(4)]DDAAFS[PyrS2″]F[Bta]S-NH2 (staple 1-4, 4-11) [I-1355]
EC50 [6]: 213 nM | IC50 [7]: 213 nM

B8: I-1070 (peptide)
peptide: Ac-[αAllylPro]D[tBuAla][B5(3)]DEAAFL[PyrS2″][Phe(2-Cl)][Bta]T-NH2
modifications: staple 1-4, 4-11; not fully specified; printed as Ac-PL3-Asp-Npg-B5-Asp-Glu-Ala-Ala-Phe-Leu-PyrS2-2C1F-BztA-Thr-NH2
EC50 [1]: 1020 nM | IC50 [2]: 1020 nM
